Laboratory results: publication doi:10.1101/2020.04.07.023903

Target: SARS-CoV-2 S glycoprotein, full length, expressed at the surface of ExpiCHO cells (SARS-CoV-2 (isolate BetaCoV/Wuhan-Hu-1/2019)) (UniProt P0DTC2)

Row | Substance | neutralization of SARS-CoV-2-MLV pseudovirus (transduction), IC50 | neutralization of SARS-CoV-2-MLV pseudovirus, plateau of neutralization | neutralization of SARS-CoV-2-MLV pseudovirus, maximal neutralization
1 | S309 Fab fragment | 3.8 nM | 80% | 
2 | S309 full-length IgG1 (rIgG-LS) (antibody) | 3.5 nM |  | 100%
